Test results taken from the DeepSol protein solubility set.

Assay: soluble on expression in E. coli; label from the status in PepcDB or PDB records

Sequence	soluble on expression in E. coli
MSDLNNAIQGILDDHVARGVVGVSLALCLPGEETSLYQSGYADKFNKMPMTGDHLFRIASCTKSFIATGLHLLVQDGTVDLDEPITRWFPDLPKAAQMPVRILLNHRSGLPDFETSMPMISDKSWTAQEIVDFSFRHGVQKEPWHGMEYSNTGYVLAGMIIAHETGKPYSDHLRSRIFAPLGMKDTWVGTHETFPIEREARGYMHAAADDENPQWDVSGAGDPVDGVWDSTEWFPLSGANAAGDMVSTPRDIVKFLNALFDGRILDQKRLWEMKDNIKPAFFPGSNTVANGHGLLLMRYGSSELKGHLGQIPGHTSIMGRDEETGAALMLIQNSGAGDFESFYLKGVNEPVDRVLEAIKNSRS	soluble
MGSDKIHHHHHHMNTRLKDTSGHSPIDPRILDEAAAWLMQLHASTVTDMERNAWEQWRLRSPQHRQAWERAEQLMNKMGGLPPALSMAALTHPGGNNRRAAIKKLALLMTALPASWAAWRVTPWEAWMAEYRTMVSEQREIELADGSQVRLNTATSIDVRFNAVQRLIVLHTGEILIQTAADNAVTPRPFQVLTAEGRLYALGTRFTVRQGEERSHVAVFDGAVAIHPKSGDSGVAQVLHAGNKTVFTAEAIEVSRPADDTDIAWTQGMLLADKMHLTDFTDELSRYRQGIVRCDPVLADLRISGAFPIRDTDRTLAMLQATYPVRIVYRTPYWVTLVPR	not soluble
MGSDKIHHHHHHMTDISWEMNDQTIVRKTDKIARQDTLPDLTLKKVKQGDRMRFDAHVNVDSMAEGQHLKRVTIFSNVPGGGTWELISDEGVAVGGRGTAPSPQMYFAAGLGLCLMSHVEMLAKSGEFEITSARLEQRSTWTTTMDLGAVAPANIYGKGEHMQMNLIIESPEPTPKIAEFIAYCRQACMALQTVAAATPVATGLYLNGAHIGDVGGTGPFAKVA	not soluble
MSLKIYGVYRSRASRPLWLLAELDLPFEHVPVIQANRVAHPHGPEAPLNTASAAYLAVNPLGQIPCLEEEGLILTESLAITLHIARTQGGQLGPRSEPEDALMVSWSLFAATAVEPPALEIQLIQRSGGGTSPEGQAAIAIAAERLRRPLARLERHFAAEDYLVGGRFTVADLNLAETLRYGQAHPALLEPFPAVAAWLDRCQSRPAFRLMMERRAAEGHHHHHH	soluble
QFDPSIVLTEVAMLLEKADINEEVERTKSHLKQFYGIILLEEPIGRKLDFLIQEMNREINTIGSKASSLKITEQVVEMKTTLEKIREQVQNVE	not soluble
MGSDKIHHHHHHMSQVIPASSQEKRRERIVSYVTRHGFARVEALAELFEVSAMTIHRDLEALAADNLVERIRGGARSVSPSMSELAVEQRRHLHRTVKEALCTAAARLIPEGAVVAIDDSTTLESLVEKLPQRSPSALITHSLKTMADHRVRAGMSDIRLIACAGLYFAETDSFLGKATSAQLNELSADISFVSTTAVRATGEVPALFHPDMEAADTKRALIGIGSVRVLVVDSSKFGSAGVFKVASIEEFDHIIIDQQCTREQRDLLRNSRAQIHVIDHNGDEILDTPTEEDF	not soluble
MSLIIRLNFITKYKVDMKRSHLSLIACLLASTQAYALSTDREQPVYIDSDSQQLDMKSNRVTFLGDVKLKQGSININADKLIVIRNAENGKIEEIEGYGNVATFSQLTDEGKTLYGEAKELYYKVRDDELVMINKAMLSQDDSEIRGSKIRYKISLQKLIADSDGKGRVSTVLQPQAIQEEGHHHHHH	soluble
MGSDKIHHHHHHMNEAFLSLTPAQIRHRLHAAPELSGQETETARRVAGWLEQAGATRIVTGLGGHGVAGVFAGTLPGPRVMFRAELDGLPIDETAEIAWKSTCEHVAHSCGHDGHMAVLLGLAQRLAEQPPTHGETVLLFQPSEETGRGAREVVESSRFEEIAPDHVYALHNLPGKPLGEVSVREGAMTCASRGLIIRLNGLCAHAAHPEQGRNPALAMCRILQGLKRLPQQLPDDQGLVMVTLIHARLGEVAFGTSPGQAEVMATLRTEDDAMMRALAEASVALARAEAEEDDLGIEIDWCDVFQATRNHPAAVASIREAARSLNMPLTALPEAHRWSEDFGWLAAQGQGALLTLGAGERCLPLHNPGYDFPDDLLDTGIALFERLVRLHQSDV	not soluble
ADLGTENLYFQSMKPSPEEAQLWSEAFDELLASKYGLAAFRAFLKSEFCEENIEFWLACEDFKKTKSPQKLSSKARKIYTDFIEKEAPKEINIDFQTKTLIAQNIQEATSGCFTTAQKRVYSLMENNSYPRFLESEFYQDLCKKPQ	soluble
MSLSLWQQCLARLQDELPATEFSMWIRPLQAELSDNTLALYAPNRFVLDWVRDKYLNNINVLLNDFCGMDAPLLRFEVGSKPLVQTISQPAQSHHNPVSVARQQPVRMAPVRPSWDNSPVQAEHTYRSNVNPKHTFDNFVEGKSNQLARAAARQVADNPGGAYNPLFLYGGTGLGKTHLLHAVGNGIIARKPNAKVVYMHSERFVQDMVKALQNNAIEEFKRYYRSVDALLIDDIQFFANKERSQEEFFHTFNALLEGNQQIILTSDRYPKEINGVEDRLKSRFGWGLTVAIEPPELETRVAILMKKADENDIRLPGEVAFFIAKRLRSNVRELEGALNRVIANANFTGRSITIDFVREALRDLLALQEKLVTIDNIQKTVAEYYKIKIADLLSKRRSRSVARPRQMAMALAKELTNHSLPEIGDAFGGRDHTTVLHACRKIEQLREESHDIKEDFSNLIRTLSSLEHHHHHH	soluble
MGSDKIHHHHHHTEDTVIKVSVLRGPSVIAFADWLENPPIIDNKKVQVKVVDSPDLAQALLIKQETDIAVLPMINAANLYNKGIKIKLAGCPIWGTLYLVEKTPLKEPALYVFGNGTTPDILTRYYLGRQRLDYPLNYAFNTAGEITQGILAGKVNRAVLGEPFLSIALRKDSSLRITADLNHLTDNDTLGFAQTAVVYTPTMEKYRIAFEDALRASCQKAVRYPKETIHSLEEHGIFAQGALTPKSIERCKIYYLSAIEAKDAVMGFLRLIEQYEPKAVGGRLPDAGFIPEKQ	not soluble
MSLYFLLQKVILPNIDLCTEEQLYFRTQGGKYNYTSRNLLVPRHKVAYFDTFFNAFSIKKWKKYTTLTSLFLRVNIIGRGTITVRHKENGVIRVLKQIDFKSSCNISDEIEIDISKINFGYIYVEWQSDEDSVLNGFELLTKDHVSKSSMALVITTYNRKEAVTKTINRINKTLLTQSEFKDRFKLIVVNNGEAINHPSGNGIIVINNENLGGSGGFMRGLIEAGKINDVKHVIFMDDDGSCEIESICRTHAFLLMAKDKNTVVTGCMLFEDNPAIIHESGAIWHRDFLHYPDKHYLDAREIDSLDTFDNERKIGYGGWWFFAFNINAIEYYSFPFFVRGDDLLFGYMHKKHNIVTLNGVASWQMDFERKISVLNSYLNFRTVAVPALISKREGHHHHHH	not soluble
MVRIYTLTLAPSLDSATITPQIYPEGKLRCSAPVFEPGGGGINVARAIAHLGGTATAIFPAGGATGEHLVALLADENVPVSTVDAKDWTRQNLHVHVESSGEQYRFVMPGATLDDDEFRQLEEQVLEIESGAILVISGSLPPGVKVEKLTQLISAAQKQGIRCIIDSSGDALTAALALGDIELVKPNLKELSALVNRDLTQPDDVRKAAQELVQSGKARRVVVSLGPQGALGIDSENCIQVVPPPVKSQSTVGAGDSMVGAMTLKLAQDASLEEMVRFGVAAGSAATLNQGTRLCSRDDTQKIYAYLSAQ	not soluble
QRLKVEDALSYLDQVKLQFGSQPQVYNDFLDIMKEFKSQSIDTPGVISRVSQLFKGHPDLIMGFNTFLPPG	soluble
QGHMPSDSKKPTIIYPCLWDYRVIMTTKDTSTLKELLETYQRPFKLEFKNTSKNAKFYSFNVSMEVSNESERNEIFQKISQLDKVVQTLGS	soluble
MAHHHHHHMTFCGFGCVSTSEVGIIENCGKFDRTADPGCFCIVPCVESVRGVVSLKVAISTVRVETKTRDNAVVNIETRLHYKVIAECAEDAFYRFSNPSEQIASFAASVVRGEVPKYTLDELFLMSDEIKKVVSAELTEKLRGFGFSLESTLLTRIEPSASVKTAISQTQINAYRRTAAEHESELNKILAVKAAEADYEEKRLSGVGLAQERQAIMKGLKSSIESFVNAVPSMRAKDVMNLLLLNQYFDAMKEVGSGKSNKLILMPNTCGAAPNFMADLVAAQAGAARMM	not soluble
MTNPLYTGHPFGTTVTEETLRAIFLPLTQWEDKYRQLILLGKQLPALPDECKAQAKEIAGCENRVWLGFTRSDNGTMHFFGDSEGRIVRGLLAVLLTAVEGKNAAELQARSPLALFDELGLRAQLSASRSQGLNALSEAIVAATHKG	not soluble
MPIRSNPFFNMDSSALLSLLRHTGTSMDSKSSKKSSGSIGGGVLKMFKLIPMLSSGCKMVNLLSRGHRRPLLKDYATTGTIFGFRKGRVFLAIQEDPHCLPIFIIELPMLTSALQKEMASETVRIALESETKTSRKKVLEEYVWGIYCNGRKIGYSIRRKNMSEEEMYVIDALRGVSMGAGVLPCKNQYDQETEGEMTYMRARFDRVIGSKDSEALYMINPEGSGQGTELSIYFLRSH	soluble
MGSDKIHHHHHHMKGIEVKQVTKSFDKKMILNGIGMTIEPNKIYGLLGRNGAGKSTLLSLLVNRIAPDTGEIRLDNKVIRDNDEQLSKMFLMSEVDLYPKNLKVKDVFKWTKSFYGGFDEELAQDLCEKFGLQTNIIFNKLSTGYRTIMKLIVALAVPVEYVFLDEPILGLDAGHREIFYNALVETYAENPRTFVISTHLIEEIANLIEHVLVIDHGRLIVDDETEKVLGEAYVVSGPEDKVDEYTQGLNVIGSDKLARIKASYVFGSLDNKPISDLINIDQMDLQTLFVNLTNGGNENE	not soluble
MSLAVLPDVPKSKDMKHRPRFLPSIGPMKKRVAFFSGCLMDTMFLPTNNATLKLLQLAGCDIVIPPEQACCGALHGHSGEKNTGKELAKQNIAAFEALDVDAVITNAGGCGAFLTEYDHLLKDDPEWSERAAAFVQKLKDFSSVLVELDFHQMDLALETPQVVTYQDSCHLRNVMHTSLEPRQLLKSIKGAEFKEMEKADSCCGSAGIYNIVEVEMSMKILDSKMAAVKATEAILIVTANPGCLLQMKLGIEREGLSGKVRAVHLADLLLEAAGHKTSEGHHHHHH	soluble
MSLNLPSFTLDIKLAGDGPAGVEKQIQQMQAMVDDRVDLIIVQPTDNAALSSPLQAANQAGIPVVAYDQYISGGHLSAFVTSNNYQAGFLDGEYMAHHFADDHTIQIILVEYPYVSSTIDRVDGFFDALNQYKQPYRILRSYQAVEPVQGRAVGQQILQDFPQPGSVDALFTINDGGGLAIVDELEKAGRHELFVATIDGDPNSVARIRKGSIIKIDSAQFCGPIGAEAMRAAYAILTAGKVHEHWLVPVFPITRQSVAHYPGWSGPIPEHYSNPCLTFLCREGHHHHHH	not soluble
GPGYQDPKGRLYGTIGIQKRFYVSIDKIPEHVINAFVATEDRNFWHHFGIDPVAIVRAAIVNYRAGRIVQGGSTITQQLAKNLFLTRERTLERKIKEALLAIKIERTFDKKKIMELYLNQIYLGSGAYGVEAAAQVYFGKHVWELSLDEAALLAALPKAPAKYNPFYHPERALQRRNLVLKRMLEEGYITPEQYEEAVNK	soluble
MAIFTDPIREHADFGPGDAEWLHLLVGDWQMVADLAFADLALWFPHPEFGYIALAHVRPSTSHTVFHADFVGEGIRSDLRPLVDKAWNSRSIERSSETSWSSEMALRVEAVPMVRNGRTLAVVTSHMDLSSSRMPSRLELTYRQCAYDLLRMGTLGLWPDFASPTGSRRGAPRVGDGLIRLDAEGIVQYASPNGVSAFRRLGEVESLEGRSLAEVTAGLLKDRRMVDETLPLVVTGRMPWRSEIESRGVSLSLRAIPLRDEQHRFGALVLCRDVSELRRREMELVTKDATIREIHHRVKNNLQTVAALLRMQSRRMVSDEAKQGLEQAMRRVATIALVHETLSQGLTQSVDFDELIGRQFRLSAEVASPSQQVRTERSGLFGELPSDFATPLALVINELVTNAVEHGLEGRTGTVWLLADRADGDGNDEFLTVTIADDGVGLPDGQYTEGLGLQIVRTLVTSELGGSIQWSPREGGGTAVEIVLNLARA	not soluble
